According to patent publication US20220363757A1:

Tests used:
Assay in all cases: SPR, Fab over captured mutant LAG-3-Fc
[1] = biological target: human LAG-3 domain 1-2 Fc fusion, chimeric construct #17 (mutated region AA 114-117) (human) (UniProt P18627)
[2] = biological target: human LAG-3 domain 1-2 Fc fusion, chimeric construct #2 (mutated region AA 29-30) (human) (UniProt P18627)
[3] = biological target: human LAG-3 domain 1-2 Fc fusion, chimeric construct #22 (mutated region AA 140-142) (human) (UniProt P18627)
Sequence of human LAG-3 domain 1-2 Fc fusion, chimeric construct #22 (mutated region AA 140-142) (human) (P18627 other isoform, or with tags, fused parts or gaps mutant): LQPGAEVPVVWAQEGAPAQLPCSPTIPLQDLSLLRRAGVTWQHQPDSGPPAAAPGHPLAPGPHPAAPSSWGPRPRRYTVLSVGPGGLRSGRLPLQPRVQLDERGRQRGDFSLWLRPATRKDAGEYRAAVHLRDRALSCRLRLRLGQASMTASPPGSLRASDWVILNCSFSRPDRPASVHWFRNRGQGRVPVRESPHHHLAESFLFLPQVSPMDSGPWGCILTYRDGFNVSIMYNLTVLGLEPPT

[4] = biological target: human LAG-3 domain 1-2 Fc fusion, chimeric construct #24 (mutated region AA 148-154) (human) (UniProt P18627)
[5] = biological target: human LAG-3 domain 1-2 Fc fusion, chimeric construct #3 (mutated region AA 40-41) (human) (UniProt P18627)
Sequence of human LAG-3 domain 1-2 Fc fusion, chimeric construct #3 (mutated region AA 40-41) (human) (P18627 other isoform, or with tags, fused parts or gaps mutant): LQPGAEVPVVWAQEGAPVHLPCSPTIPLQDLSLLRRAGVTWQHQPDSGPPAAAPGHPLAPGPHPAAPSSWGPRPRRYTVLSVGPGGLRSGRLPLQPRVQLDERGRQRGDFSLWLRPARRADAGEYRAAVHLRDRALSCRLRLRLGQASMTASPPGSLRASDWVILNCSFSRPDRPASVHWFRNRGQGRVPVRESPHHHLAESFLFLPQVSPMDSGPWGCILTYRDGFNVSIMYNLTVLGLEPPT

[6] = biological target: human LAG-3 domain 1-2 Fc fusion, chimeric construct #8 (mutated region AA 59-66) (human) (UniProt P18627)
Sequence of human LAG-3 domain 1-2 Fc fusion, chimeric construct #8 (mutated region AA 59-66) (human) (P18627 other isoform, or with tags, fused parts or gaps mutant): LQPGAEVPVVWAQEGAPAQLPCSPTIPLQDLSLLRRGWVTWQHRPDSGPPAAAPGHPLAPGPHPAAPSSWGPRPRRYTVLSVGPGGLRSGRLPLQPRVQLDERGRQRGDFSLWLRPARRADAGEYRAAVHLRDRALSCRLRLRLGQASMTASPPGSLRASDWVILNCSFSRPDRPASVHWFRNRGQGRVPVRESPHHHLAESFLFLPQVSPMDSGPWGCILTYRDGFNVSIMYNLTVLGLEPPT

[7] = biological target: human LAG-3 domain 1-2 Fc fusion, point mutation #1 A40S (human) (UniProt P18627)
Sequence of human LAG-3 domain 1-2 Fc fusion, point mutation #1 A40S (human) (P18627 23-266 A40S): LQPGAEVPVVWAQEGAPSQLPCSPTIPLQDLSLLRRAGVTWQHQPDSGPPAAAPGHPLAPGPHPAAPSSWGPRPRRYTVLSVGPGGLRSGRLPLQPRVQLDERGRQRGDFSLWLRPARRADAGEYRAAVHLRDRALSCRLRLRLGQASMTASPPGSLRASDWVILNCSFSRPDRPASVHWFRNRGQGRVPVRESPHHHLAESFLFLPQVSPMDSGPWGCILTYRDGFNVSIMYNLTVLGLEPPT

[8] = biological target: human LAG-3 domain 1-2 Fc fusion, point mutation #13 R58A (human) (UniProt P18627)
Sequence of human LAG-3 domain 1-2 Fc fusion, point mutation #13 R58A (human) (P18627 23-266 R58A): as the sequence (P18627 23-266 A40S) above, with S18A, R36A counted along it

[9] = biological target: human LAG-3 domain 1-2 Fc fusion, point mutation #14 T62A (human) (UniProt P18627)
[10] = biological target: human LAG-3 domain 1-2 Fc fusion, point mutation #15 Q64A (human) (UniProt P18627)
Sequence of human LAG-3 domain 1-2 Fc fusion, point mutation #15 Q64A (human) (P18627 23-266 Q64A): as the sequence (P18627 23-266 A40S) above, with S18A, Q42A counted along it

[11] = biological target: human LAG-3 domain 1-2 Fc fusion, point mutation #27 L80A (human) (UniProt P18627)
Sequence of human LAG-3 domain 1-2 Fc fusion, point mutation #27 L80A (human) (P18627 23-266 L80A): as the sequence (P18627 23-266 A40S) above, with S18A, L58A counted along it

[12] = biological target: human LAG-3 domain 1-2 Fc fusion, point mutation #28 A81S (human) (UniProt P18627)
[13] = biological target: human LAG-3 domain 1-2 Fc fusion, point mutation #33 P86A (human) (UniProt P18627)
Sequence of human LAG-3 domain 1-2 Fc fusion, point mutation #33 P86A (human) (P18627 23-266 P86A): as the sequence (P18627 23-266 A40S) above, with S18A, P64A counted along it

[14] = biological target: human LAG-3 domain 1-2 Fc fusion, point mutation #35 A88S (human) (UniProt P18627)
Sequence of human LAG-3 domain 1-2 Fc fusion, point mutation #35 A88S (human) (P18627 23-266 A88S): as the sequence (P18627 23-266 A40S) above, with S18A, A66S counted along it

[15] = biological target: human LAG-3 domain 1-2 Fc fusion, point mutation #38 S91A (human) (UniProt P18627)
[16] = biological target: human LAG-3 domain 1-2 Fc fusion, point mutation #41 P94A (human) (UniProt P18627)
[17] = biological target: human LAG-3 domain 1-2 Fc fusion, point mutation #42 R95A (human) (UniProt P18627)
Sequence of human LAG-3 domain 1-2 Fc fusion, point mutation #42 R95A (human) (P18627 23-266 R95A): as the sequence (P18627 23-266 A40S) above, with S18A, R73A counted along it

[18] = biological target: human LAG-3 domain 1-2 Fc fusion, point mutation #44 R97A (human) (UniProt P18627)
[19] = biological target: human LAG-3 domain 1-2 Fc fusion, point mutation #45 R98A (human) (UniProt P18627)
Sequence of human LAG-3 domain 1-2 Fc fusion, point mutation #45 R98A (human) (P18627 23-266 R98A): as the sequence (P18627 23-266 A40S) above, with S18A, R76A counted along it

[20] = biological target: human LAG-3 domain 1-2 Fc fusion, point mutation #47 T100A (human) (UniProt P18627)
[21] = biological target: human LAG-3 domain 1-2 Fc fusion, point mutation #5 P46A (human) (UniProt P18627)
Sequence of human LAG-3 domain 1-2 Fc fusion, point mutation #5 P46A (human) (P18627 23-266 P46A): as the sequence (P18627 23-266 A40S) above, with S18A, P24A counted along it

[22] = biological target: human LAG-3 domain 1-2 Fc fusion, point mutation #56 G112A (human) (UniProt P18627)
Sequence of human LAG-3 domain 1-2 Fc fusion, point mutation #56 G112A (human) (P18627 23-266 G112A): as the sequence (P18627 23-266 A40S) above, with S18A, G90A counted along it

[23] = biological target: human LAG-3 domain 1-2 Fc fusion, point mutation #6 T47A (human) (UniProt P18627)
Sequence of human LAG-3 domain 1-2 Fc fusion, point mutation #6 T47A (human) (P18627 23-266 T47A): as the sequence (P18627 23-266 A40S) above, with S18A, T25A counted along it

[24] = biological target: human LAG-3 domain 1-2 Fc fusion, point mutation #63 D123A (human) (UniProt P18627)
Sequence of human LAG-3 domain 1-2 Fc fusion, point mutation #63 D123A (human) (P18627 23-266 D123A): as the sequence (P18627 23-266 A40S) above, with S18A, D101A counted along it

[25] = biological target: human LAG-3 domain 1-2 Fc fusion, point mutation #64 E124A (human) (UniProt P18627)
[26] = biological target: human LAG-3 domain 1-2 Fc fusion, point mutation #66 G126A (human) (UniProt P18627)
Sequence of human LAG-3 domain 1-2 Fc fusion, point mutation #66 G126A (human) (P18627 23-266 G126A): as the sequence (P18627 23-266 A40S) above, with S18A, G104A counted along it

[27] = biological target: human LAG-3 domain 1-2 Fc fusion, point mutation #67 R127A (human) (UniProt P18627)
[28] = biological target: human LAG-3 domain 1-2 Fc fusion, point mutation #71 D131A (human) (UniProt P18627)
[29] = biological target: human LAG-3 domain 1-2 Fc fusion, point mutation #72 S133A (human) (UniProt P18627)
Sequence of human LAG-3 domain 1-2 Fc fusion, point mutation #72 S133A (human) (P18627 23-266 S133A): as the sequence (P18627 23-266 A40S) above, with S18A, S111A counted along it

[30] = biological target: human LAG-3 domain 1-2 Fc fusion, point mutation #74 P138A (human) (UniProt P18627)
[31] = biological target: human LAG-3 domain 1-2 Fc fusion, point mutation #76 D143A (human) (UniProt P18627)
Sequence of human LAG-3 domain 1-2 Fc fusion, point mutation #76 D143A (human) (P18627 23-266 D143A): as the sequence (P18627 23-266 A40S) above, with S18A, D121A counted along it

[32] = biological target: human LAG-3 domain 1-2 Fc fusion, point mutation #8 Q51A (human) (UniProt P18627)
[33] = biological target: human LAG-3 domain 1-2 Fc fusion, point mutation #9 D52A (human) (UniProt P18627)
Sequence of human LAG-3 domain 1-2 Fc fusion, point mutation #9 D52A (human) (P18627 23-266 D52A): as the sequence (P18627 23-266 A40S) above, with S18A, D30A counted along it

In the case of Fab fragment of 25F7-Lag3.5 analogue, the KD mutant/KD wild type [1] is reported as 1.3 fold, the KD mutant/KD wild type [2] is reported as 1.2 fold and the KD mutant/KD wild type [3] is reported as 1.2 fold. The KD mutant/KD wild type [4] was 0.7 fold, the KD mutant/KD wild type [5] was 1.3 fold and the KD mutant/KD wild type [6] was 1.3 fold. It also gave a KD mutant/KD wild type [7] of 1.1 fold, a KD mutant/KD wild type [8] of 0.8 fold and a KD mutant/KD wild type [9] of 1.3 fold. It also gave a KD mutant/KD wild type [10] of 1.3 fold, a KD mutant/KD wild type [11] of 0.7 fold and a KD mutant/KD wild type [12] of 0.7 fold. For the same substance, the KD mutant/KD wild type [13] was 2.7 fold, the KD mutant/KD wild type [14] was 3.5 fold and the KD mutant/KD wild type [15] was 2.2 fold. The KD mutant/KD wild type [16] was 0.8 fold, the KD mutant/KD wild type [17] was 1.9 fold and the KD mutant/KD wild type [18] was 0.9 fold. For the same substance, the KD mutant/KD wild type [19] was 0.9 fold, the KD mutant/KD wild type [20] was 1.2 fold and the KD mutant/KD wild type [21] was 1.1 fold. For the same substance, the KD mutant/KD wild type [22] was 0.9 fold, the KD mutant/KD wild type [23] was 0.8 fold and the KD mutant/KD wild type [24] was 1 fold. It also gave a KD mutant/KD wild type [25] of 1.1 fold, a KD mutant/KD wild type [26] of 0.9 fold and a KD mutant/KD wild type [27] of 0.7 fold. For the same substance, the KD mutant/KD wild type [28] was 1.2 fold, the KD mutant/KD wild type [29] was 1.1 fold and the KD mutant/KD wild type [30] was 1 fold. For the same substance, the KD mutant/KD wild type [31] was 1 fold, the KD mutant/KD wild type [32] was 0.8 fold and the KD mutant/KD wild type [33] was 0.8 fold.
